Assay results reported in patent US4608364A, “Pharmaceutical agent for the treatment of diabetes mellitus” (Hoechst Aktiengesellschaft, priority 1983, dated 1986).

Columns and labels:
[1] = unmodified hormone, background statement; region of maximum insolubility; cited from earlier work
[2] = Biological activity of insulins and insulin derivatives; conditions: specific activity of the active compound used in the formulation
[3] = based on the amount of protein; cited from earlier work

Substance | isoelectric point [1] | biological activity per mg [2] [IU/mg] | inherent biological activity as fraction of the activity of insulin [3]
insulin [reference compound] | 5.4 | – | –
Porcine proinsulin: porcine proinsulin, dissolved component of Example 2 | – | 3.3 | –
proinsulin: naturally occurring precursor of insulin, A and B chain linked by the C peptide | 5.4 | – | about 1/8
